± gives the standard deviation of the averaged measurements.
test system: Saccharomyces cerevisiae; experiment: protein stability index of tFT-peptide fusion (C-terminal peptide) (PSI (0-1 scale)); higher = more stable (slower turnover); conditions: genetic background: wild type; temperature: 30 C
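Further: PSI is a weighted mean of sequencing reads over stability bins, variants kept only with over 10 reads, mCherry proximal and sfGFP distal, peptide attached via GGGS linker.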

| Sequence | protein stability index |
| --- | --- |
| CPLPIKANLSFP | 0.705 ± 0.037 |
| PNVPVPTPPPGI | 0.729 ± 0.061 |
| GAGGVWGGGQAG | 0.696 ± 0.041 |
| PPPYRPPPSSPG | 0.661 ± 0.04 |
| QGVGDILARVQG | 0.697 ± 0.048 |
| PLPLAPHPDYSL | 0.687 ± 0.052 |
| SGRSRVAGVERR | 0.708 ± 0.062 |
| RASFLLPPPAPP | 0.6311 ± 0.0049 |
| WGPGGVAWGAWW | 0.7837 ± 0.0022 |
| PPQPRSHPPHLS | 0.594 ± 0.086 |
| TFFFLGSVFSLA | 0.638 ± 0.043 |
| KKKKKKNTHNTK | 0.646 ± 0.07 |
| RKGKKNKKPKKQ | 0.612 ± 0.02 |
| ARRTEEVVLRSL | 0.693 ± 0.059 |
| GLRLGRVWVGGW | 0.6647 ± 0.0026 |
| KKPVNINNKLSA | 0.647 ± 0.017 |
| RGREGSSVAVMV | 0.646 ± 0.04 |
| GAKCLFVSGGGI | 0.6804 ± 0.0047 |
| FPFVVVISSSGE | 0.693 ± 0.23 |
| VFCLGTRSWGLF | 0.6997 ± 0.0042 |
| LSHMRVSLTRPR | 0.707 ± 0.029 |
| SGVLRLSGTGAV | 0.688 ± 0.0018 |
| FSSARSPLLSRL | 0.705 ± 0.041 |
| IFKSGLPLRVGL | 0.657 ± 0.028 |
| APTVPVPPSPDA | 0.705 ± 0.077 |
| ERNEERKATTRS | 0.726 ± 0.067 |

| Sequence | protein stability index |
| --- | --- |
| ECIKVRGQWREI | 0.662 ± 0.011 |
| VGVWAGVVLLGG | 0.825 ± 0.18 |
| LFSCLHCLFSCQ | 0.616 ± 0.091 |
| PFPHLYTPRLLF | 0.571 ± 0.014 |
| PPLPLTAPHLCH | 0.705 ± 0.03 |
| VGWSWTSWTKGD | 0.661 ± 0.021 |
| GYKLLIEGNWEV | 0.756 ± 0.025 |
| RKMNEEKEIRRQ | 0.6569 ± 0.0065 |
| DARKTKNRKDTA | 0.699 ± 0.024 |
| SDPASVIPMELE | 0.673 ± 0.052 |
| GGGAAGILWGLG | 0.694 ± 0.013 |
| SGVSCPGRVDGG | 0.68 ± 0.0085 |
| ERCLRYRTVVDW | 0.632 ± 0.063 |
| ERKKKNPSTTRR | 0.684 ± 0.0086 |
| FPLQSFCYFVPI | 0.597 ± 0.0015 |
| RTLSSFSPGYLF | 0.8548 ± 0.0033 |
| PASCARVFVGMS | 0.67 ± 0.037 |
| RRGWVRWRVGAA | 0.667 ± 0.074 |
| PRLLPSTCEREV | 0.618 ± 0.066 |
| TILPWCLFLVAD | 0.6 ± 0.0098 |
| AAIQNRPIQSNP | 0.672 ± 0.027 |
| TSWTTVYSSLLT | 0.672 ± 0.088 |
| AKVKIENKHRRK | 0.716 ± 0.015 |
| TFPKKKGLLNIS | 0.636 ± 0.028 |
| FGESGSGSKRCG | 0.701 ± 0.12 |
| LVRAWRGGVGGV | 0.669 ± 0.0098 |

| Sequence | protein stability index |
| --- | --- |
| GLVLPGHLTLAS | 0.628 ± 0.08 |
| PSPTAPGPSIPP | 0.667 ± 0.049 |
| PPPPAQGRRRPV | 0.703 ± 0.023 |
| GCLVGRGQRGTE | 0.686 ± 0.026 |
| SRKEKNEKRSWG | 0.674 ± 0.041 |
| CLPFSCFLLTPR | 0.692 ± 0.014 |
| GGAFPGPGFGLD | 0.68 ± 0.017 |
| VLGGRWDGVGGV | 0.661 ± 0.064 |
| GVTGRGVSRVYG | 0.671 ± 0.013 |
| HIPHSKPRTSLP | 0.734 ± 0.048 |
| HFPLSLSPPPPP | 0.721 ± 0.032 |
| KDQRAKRRRREE | 0.679 ± 0.08 |
| LLGDPGDFFPAS | 0.713 ± 0.028 |
| PPLPPPPHPPFP | 0.683 ± 0.07 |
| RTLAGLLVDSHV | 0.679 ± 0.041 |
| NKRLKNKIKRIK | 0.651 ± 0.037 |
| TNRIRGTARKVK | 0.67 ± 0.055 |
| PGPLISAVPLPF | 0.733 ± 0.064 |
| GLVGCLFFCCIG | 0.558 ± 0.013 |
| LSLLLLPPFPHF | 0.758 ± 0.026 |
| TLSPGYTFPLSL | 0.743 ± 0.023 |
| VGEGLGWGGQGG | 0.712 ± 0.062 |
| THPPSFHPSRAP | 0.693 ± 0.092 |
| SNQRQRETKREE | 0.677 ± 0.039 |
| YVFFPNGGLRLG | 0.564 ± 0.022 |
| WVPPPPYSPFSL | 0.695 ± 0.027 |

| Sequence | protein stability index |
| --- | --- |
| VHRRRVSVGGGV | 0.69044 ± 0.00032 |
| LACWAGVLGWGG | 0.732 ± 0.022 |
| GADSWFGVVDVC | 0.75 ± 0.1 |
| VGAGGAWSGCGP | 0.675 ± 0.046 |
| KREQGPRPRACR | 0.617 ± 0.036 |
| HDPRVGDNAHFV | 0.641 ± 0.099 |
| PALPPASPRPAL | 0.776 ± 0.072 |
| GALYGARCNFEL | 0.72017 ± 0.00015 |
| GLVFSFSACPVL | 0.653 ± 0.066 |
| LFFLPSVLPFHC | 0.636 ± 0.025 |
| QRRRYKHEIKRM | 0.648 ± 0.0085 |
| KKEKRQQEKIIK | 0.671 ± 0.04 |
| APCLLNTLRPSP | 0.686 ± 0.033 |
| PPGPRPTPPPPI | 0.641 ± 0.045 |
| PLHPPSLPPPPT | 0.732 ± 0.032 |
| IGVAARPWAGAQ | 0.706 ± 0.02 |
| LLSRCAGLMWSF | 0.679 ± 0.0098 |
| LVFGLGSVYLWG | 0.602 ± 0.059 |
| SPRLSGVPGHAP | 0.663 ± 0.027 |
| ASYSFLSFCNRV | 0.631 ± 0.015 |
| AFPSISNEVVSV | 0.707 ± 0.017 |
| TVYTPGVFVKTV | 0.562 ± 0.044 |
| CPLPPPRPLLSA | 0.651 ± 0.026 |
| LPHSYFCPTFFF | 0.675 ± 0.019 |
| IWGKREDKNVYR | 0.71 ± 0.025 |
| RPHAFHCDPSSP | 0.698 ± 0.11 |

| Sequence | protein stability index |
| --- | --- |
| LRPRPPTLPPSR | 0.638 ± 0.04 |
| KKKKKNNKRQKQ | 0.593 ± 0.089 |
| LSATWLKAIVYW | 0.578 ± 0.012 |
| SPPSPFAFPLPP | 0.67473 ± 0.00064 |
| SAPLRHTSSSPS | 0.697 ± 0.043 |
| GLGGGRCFWGVG | 0.686 ± 0.061 |
| IRKGKKIRKKEN | 0.641 ± 0.037 |
| AVRYFKLCRSCL | 0.65 ± 0.012 |
| VTGDRGGVRGGE | 0.685 ± 0.012 |
| TSRSPLCTETIP | 0.736 ± 0.0074 |
| PPLPCATLPSHS | 0.706 ± 0.013 |
| SLESRGLRSRHY | 0.633 ± 0.073 |
| VTPPGFTYVLEV | 0.619 ± 0.058 |
| VLVSVSVPLRGR | 0.78 ± 0.1 |
| KTIQDNNYDGIW | 0.766 ± 0.25 |
| RAFDGYNSVDML | 0.663 ± 0.023 |
| HGTAQGVRRQGV | 0.711 ± 0.16 |
| LGLLVLARFSPL | 0.7076 ± 0.0053 |
| GCQVAVGRAGGV | 0.659 ± 0.023 |
| IGDRQIDFFKKD | 0.7073 ± 0.0024 |
| PFPSPSRHSLFP | 0.723 ± 0.084 |
| PHAPHPPHPAPC | 0.653 ± 0.01 |
| RLAVLSLPPHPT | 0.6685 ± 0.0037 |
| LPLRYFSFPDPF | 0.6949 ± 0.0035 |
| TLGGEITYKVKT | 0.684 ± 0.034 |
| DPWPPPRTRTRT | 0.682 ± 0.015 |

| Sequence | protein stability index |
| --- | --- |
| VLKRYILRNEKD | 0.697 ± 0.027 |
| ASSLSHLSLPAP | 0.695 ± 0.017 |
| DPPLPLSPLTHR | 0.679 ± 0.05 |
| AGQNVWGAGTNE | 0.712 ± 0.0079 |
| CGGGGASGAIAR | 0.668 ± 0.013 |
| GAREHGSNDYGP | 0.635 ± 0.036 |
| FPPVPLVTDTFT | 0.675 ± 0.034 |
| LPPTHPPPPPAL | 0.7 ± 0.045 |
| LPFCLPAPLPPP | 0.708 ± 0.04 |
| FSSSPGRSFRTV | 0.726 ± 0.0091 |
| GVGWFGRGTVGW | 0.676 ± 0.035 |
| VGFVYLTSAQVW | 0.527 ± 0.012 |
| VDSLFGSRVLRL | 0.727 ± 0.097 |
| KRKERKGEKKRR | 0.685 ± 0.033 |
| KKGREKKQQKER | 0.717 ± 0.015 |
| EVSGGNRYWCGV | 0.719 ± 0.022 |
| RLRPVLSPHAPI | 0.648 ± 0.033 |
| SSLFVISIPFRS | 0.639 ± 0.015 |
| PALPFAPPPLPP | 0.685 ± 0.02 |
| QKKNQNKQEQKL | 0.683 ± 0.021 |
| DCCAHLRARRLT | 0.539 ± 0.035 |
| LPHLFPSTPPAS | 0.723 ± 0.025 |
| HNIQHKIHTKSR | 0.761 ± 0.039 |
| RGYEGSEVQVGV | 0.677 ± 0.043 |
| HTWAFYSETVCL | 0.694 ± 0.0092 |
| LDCVPRTHCILS | 0.664 ± 0.074 |

| Sequence | protein stability index |
| --- | --- |
| RGYLAKELGVKS | 0.652 ± 0.02 |
| YHALNSLHPPSP | 0.69 ± 0.027 |
| RLVRVTSIKGKR | 0.735 ± 0.054 |
| RAARQRSVYQHG | 0.6481 ± 0.0037 |
| GVGSVADWGGVG | 0.599 ± 0.018 |
| FPRSSGRTVNCV | 0.648 ± 0.0084 |
| PHLFDPLVPASF | 0.682 ± 0.048 |
| PSPPPLSPPTPR | 0.667 ± 0.016 |
| LRFRGKSQNDYD | 0.67 ± 0.058 |
| NGSIENIAKRKK | 0.639 ± 0.077 |
| QRPSRAQGKSYE | 0.766 ± 0.014 |
| GCLLVVGGVWGS | 0.625 ± 0.036 |
| ACDVPSERAVSG | 0.628 ± 0.024 |
| LPSPSATPPRPP | 0.634 ± 0.034 |
| RGYGRGWRGVGA | 0.747 ± 0.18 |
| EARLGVGRCGTG | 0.67 ± 0.0098 |
| EPASLTVFEGTS | 0.587 ± 0.022 |
| CGSCFIKRFGGG | 0.631 ± 0.034 |
| HSRAPNNWHRGI | 0.708 ± 0.043 |
| VMGYCNWCVIRQ | 0.694 ± 0.054 |
| RHPVFSSTVSYI | 0.738 ± 0.03 |
| VVWKRALWGEGL | 0.791 ± 0.073 |
| FPSSRGLGGTMG | 0.658 ± 0.017 |
| TLRVQNKRKSEE | 0.663 ± 0.028 |
| EKGRERREGGRK | 0.749 ± 0.044 |
| GGFKGGKWVVEG | 0.606 ± 0.021 |

| Sequence | protein stability index |
| --- | --- |
| ARPPTPLRKGAP | 0.673 ± 0.017 |
| MGMSAGCGGWSG | 0.6867 ± 0.0055 |
| PDVNEATPKLWC | 0.694 ± 0.027 |
| KHVRIEVITERN | 0.635 ± 0.056 |
| TRSRAQTEAHRR | 0.669 ± 0.032 |
| RRTEGLATAGRV | 0.666 ± 0.072 |
| LCLFPLVTPPPA | 0.607 ± 0.029 |
| APRLFSPPEPPT | 0.702 ± 0.038 |
| FLSARVSSSLLL | 0.639 ± 0.035 |
| SLLLPPRPPPRV | 0.744 ± 0.055 |
| PTRAPVKPDQHP | 0.798 ± 0.072 |
| RFGGGAVWGLGG | 0.666 ± 0.02 |
| CGAAFRSWTVRG | 0.653 ± 0.067 |
| DSVGVLVPRGFR | 0.766 ± 0.045 |
| LLHFSSPPLLPV | 0.634 ± 0.055 |
| GVDDGGGCCRVR | 0.773 ± 0.009 |
| APFPPHPPPPPS | 0.707 ± 0.043 |
| KSSTLRKIKRGK | 0.716 ± 0.03 |
| LLWPSPAISLPT | 0.722 ± 0.021 |
| NLPLVDIIPISN | 0.828 ± 0.025 |
